According to paper PMC11381880, “Action and cooperation in alginate degradation by three enzymes from the human gut bacterium Bacteroides eggerthii DSM 20697” (The Journal of Biological Chemistry, 2024):
“And” between values parts separate entries of the source, which are not always exact repeats. Identical values can stand only once.

What was measured:
BeKdgF = biological target: T1, BeKdgF (Bacteroides eggerthii, UniProt A0A380Z821); experiment: loss of absorbance at […] nm, Michaelis-Menten fit, spontaneous conversion subtracted; type: biochemical; conditions: 50 mM HEPES, 150 mM NaCl, pH 7.0; 20 nM enzyme, no metal added; saturation not achieved (estimate); substrate made from polyM by BePL17
T1 construct: gene DW701_08695; no signal peptide; theoretical mass 14,137 Da; locus tag BACEGG_03250 inferred from gene order in PUL BACEGG_03245-03254 (PL17 = BACEGG_03249)
T1 sequence (A0A380Z821 1-114): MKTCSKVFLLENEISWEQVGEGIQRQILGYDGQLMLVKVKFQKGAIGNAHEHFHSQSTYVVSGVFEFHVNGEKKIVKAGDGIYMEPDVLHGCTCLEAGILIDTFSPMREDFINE

Asp102 = experiment: NMR; conditions: 25 °C; 25 mM NaCl; 20 mM HEPES (starting pH 7.2), pH adjusted with HCl/NaOH; Folded recombinant BeKdgF as purified, 0.26 mM, no substrate or ligand added; metal loading not given
Asp110 = experiment: NMR; conditions: 25 °C; 25 mM NaCl; 20 mM HEPES (starting pH 7.2), pH adjusted with HCl/NaOH; Folded recombinant BeKdgF as purified, 0.26 mM, no substrate or ligand added; metal loading not given
Asp21 = experiment: NMR; conditions: 25 °C; 25 mM NaCl; 20 mM HEPES (starting pH 7.2), pH adjusted with HCl/NaOH; Folded recombinant BeKdgF as purified, 0.26 mM, no substrate or ligand added; metal loading not given
Glu114 = experiment: NMR; conditions: 25 °C; 25 mM NaCl; 20 mM HEPES (starting pH 7.2), pH adjusted with HCl/NaOH; Folded recombinant BeKdgF as purified, 0.26 mM, no substrate or ligand added; metal loading not given
Glu13 = experiment: NMR; conditions: 25 °C; 25 mM NaCl; 20 mM HEPES (starting pH 7.2), pH adjusted with HCl/NaOH; Folded recombinant BeKdgF as purified, 0.26 mM, no substrate or ligand added; metal loading not given
Glu17 = experiment: NMR; conditions: 25 °C; 25 mM NaCl; 20 mM HEPES (starting pH 7.2), pH adjusted with HCl/NaOH; Folded recombinant BeKdgF as purified, 0.26 mM, no substrate or ligand added; metal loading not given
Glu66 = experiment: NMR; conditions: 25 °C; 25 mM NaCl; 20 mM HEPES (starting pH 7.2), pH adjusted with HCl/NaOH; Folded recombinant BeKdgF as purified, 0.26 mM, no substrate or ligand added; metal loading not given
[1] = biological target: BeKdgF, KdgF-like metalloprotein from Bacteroides eggerthii DSM 20697 (Bacteroides eggerthii DSM 20697); experiment: NMR 15N relaxation (rotational correlation time from T1/T2); 0.43 mM 13C-15N-labelled BeKdgF, 25 mM Na2HPO4 pH 7.2, 50 mM NaCl, 25 °C, 800 MHz
[2] = biological target: BeKdgF, KdgF-like metalloprotein from Bacteroides eggerthii DSM 20697 (Bacteroides eggerthii DSM 20697); experiment: SEC-MALS; BeKdgF at 1 mg/mL, 40 ul on Superdex 200 Increase 10/300 GL, 50 mM HEPES, 150 mM NaCl, pH 7.7, ice-cold buffer, 0.5 ml/min; DAWN8+ detector; equilibrium of tetramer and dimer
[3] = biological target: BePL17, PL17 subfamily 2 alginate lyase from Bacteroides eggerthii DSM 20697 (Bacteroides eggerthii DSM 20697); experiment: SEC; elution on HiLoad Superdex 200 pg 16/600; data not shown

**Q.** With “4-deoxy-β-L-threo-hex-4-enopyranuronic acid [compound 1]” as the substance, how does the Km (BeKdgF) read?
**A.** 1140 ± 560 µM

**Q.** “BeKdgF (KdgF-like cupin metalloprotein; annotated Unk3 in PULDB) (Bacteroides eggerthii DSM 20697)” was tested. Which pKa (Asp102) did it give?
**A.** 5.9 ± 0.1

**Q.** And the pKa (Asp110)?
**A.** 5.5±0.2

**Q.** And the pKa (Asp21)?
**A.** 5.0±0.2

**Q.** What about the pKa (Glu114) of the same substance?
**A.** 5.1±0.1 and 5.2±0.1

**Q.** And the pKa (Glu13)?
**A.** 5.0 ± 0.2

**Q.** What about the pKa (Glu17) of the same substance?
**A.** 4.9±0.1

**Q.** And the pKa (Glu66)?
**A.** 5.6±0.1 and 5.1±0.2

**Q.** Which results are given for “BeKdgF, KdgF-like metalloprotein from Bacteroides eggerthii DSM 20697 (enzyme)”?
**A.** stoichiometry N [1]: 2; percent of the protein as dimer [2]: 93.5%; percent of the protein as tetramer [2]: 6.5%; stoichiometry N [2]: 4 and 2

**Q.** With “BePL17, PL17 subfamily 2 alginate lyase from Bacteroides eggerthii DSM 20697 (enzyme)” as the substance, how does the stoichiometry N [3] read?
**A.** 2
